T1: pneumolysin (Streptococcus pneumoniae, UniProt P0C2J9 1-471)
T1 chain: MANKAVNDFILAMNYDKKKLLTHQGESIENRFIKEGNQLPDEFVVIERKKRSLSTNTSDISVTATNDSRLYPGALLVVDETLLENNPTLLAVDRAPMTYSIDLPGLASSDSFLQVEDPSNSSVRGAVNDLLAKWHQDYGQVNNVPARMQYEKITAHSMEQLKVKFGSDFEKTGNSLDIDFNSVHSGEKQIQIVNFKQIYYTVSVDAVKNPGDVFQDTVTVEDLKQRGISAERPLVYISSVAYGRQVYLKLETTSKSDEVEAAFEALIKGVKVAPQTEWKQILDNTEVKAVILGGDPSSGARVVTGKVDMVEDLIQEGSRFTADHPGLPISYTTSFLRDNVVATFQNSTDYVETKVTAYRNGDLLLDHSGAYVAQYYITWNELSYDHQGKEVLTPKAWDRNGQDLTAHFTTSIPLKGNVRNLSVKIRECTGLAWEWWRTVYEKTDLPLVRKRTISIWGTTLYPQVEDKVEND


What was measured:
Experiment in all cases: SPR
pneumolysin [1] = molecular target: T1, pneumolysin
pneumolysin [2] = molecular target: T1, pneumolysin
pneumolysin [3] = molecular target: T1, pneumolysin

| Binder | Kd (pneumolysin [1]) [nM] | Ka (pneumolysin [2]) [M⁻¹] | koff (pneumolysin [3]) [s⁻¹] |
| --- | --- | --- | --- |
| plasma kallikrein (zymogen) (natural protein) not shown | 328 | 3.04e+06 | 0.00942 |
| factor XII (zymogen) (natural protein) IPPWEAPKEHKYKAEEHTVVLTVTGEPCHFPFQYHRQLYHKCTHKGRPGPQPWCATTPNFDQDQRWGYCLEPKKVKDHCSKHSPCQKGGTCVNMPSGPHCLCPQHLTGNHCQKEKCFEPQLLRFFHKNEIWYRTEQAAVARCQCKGPDAHCQRLASQACRTNPCLHGGRCLEVEGHRLCHCPVGYTGAFCDVDTKASCYDGRGLSYRGLARTTLSGAPCQPWASEATYRNVTAEQARNWGLGGHAFCRNPDNDIRPWCFVLNRDRLSWEYCDLAQCQTPTQAAPPTPVSPRLHVPLMPAQPAPPKPQPTTRTPPQSQTPGALPAKREQPPSLTRNGPLSCGQRLRKSLSSMTRVVGGLVALRGAHPYIAALYWGHSFCAGSLIAPCWVLTAAHCLQDRPAPEDLTVVLGQERRNHSCEPCQTLAVRSYRLHEAFSPVSYQHDLALLRLQEDADGSCALLSPYVQPVCLPSGAARPSETTLCQVAGWGHQFEGAEEYASFLQEAQVPFLSLERCSAPDVHGSSILPGMLCAGFLEGGTDACQGDSGGPLVCEDQAAERRLTLQGIISWGSGCGDRNKPGVYTDVAYYLAWIREHTVS | 24.9 | 4.41e+07 | 0.00198 |
| high-molecular-weight kininogen (natural protein) QESQSEEIDCNDKDLFKAVDAALKKYNSQNQSNNQFVLYRITEATKTVGSDTFYSFKYEIKEGDCPVQSGKTWQDCEYKDAAKAATGECTATVGKRSSTKFSVATQTCQITPAEGPVVTAQYDCLGCVHPISTQSPDLEPILRHGIQYFNNNTQHSSLFMLNEVKRAQRQVVAGLNFRITYSIVQTNCSKENFLFLTPDCKSLWNGDTGECTDNAYIDIQLRIASFSQNCDIYPGKDFVQPPTKICVGCPRDIPTNSPELEETLTHTITKLNAENNATFYFKIDNVKKARVQVVAGKKYFIDFVARETTCSKESNEELTESCETKKLGQSLDCNAEVYVVPWEKKIYPTVNCQPLGMISLMKRPPGFSPFRSSRIGEIKEETTVSPPHTSMAPAQDEERDSGKEQGHTRRHDWGHEKQRKHNLGHGHKHERDQGHGHQRGHGLGHGHEQQHGLGHGHKFKLDDDLEHQGGHVLDHGHKHKHGHGHGKHKNKGKKNGKHNGWKTEHLASSSEDSTTPSAQTQEKTEGPTPIPSLAKPGVTVTFSDFQDSDLIATMMPPISPAPIQSDDDWIPDIQIDPNGLSFNPISDFPDTTSPKCPGRPWKSVSEINPTTQMKESYYFDLTDGLS | 12600 | 573000 | 0.00208 |
